Experimental findings from US10344295B2, “Methods and compositions for providing resistance to glufosinate” (priority 2014, dated 2019) are described below.

The test system of one experiment is TOP10 E. coli cells. Description: minimum inhibitory concentration experiment: growth of E. coli in liquid media with glufosinate. In kind it is cell-based. The method, then:
FIG. 1 provides a minimal inhibitory concentration experiment. A polynucleotide encoding SEQ ID NO: 1 was transformed into E. coli cells for protein expression with an N-terminal maltose binding protein. The resulting E. coli clone was analyzed for the ability to grow in the presence of glufosinate.
Predicted ORFs (open reading frames) and protein products from genome sequences of several bacterial isolates were identified. A predicted protein was found with 43.53% identity to the phosphinothricin acetyltransferase (PAT) gene. This gene coding for a new GluR (glufosinate resistance) protein was cloned from that strain and is referred to herein as GluRAP1 and set forth in SEQ ID NO:1 (protein sequence) and 2 (DNA sequence). […] The gene coding for SEQ ID NO: 1 was cloned into the pMAL vector and transformed into TOP10 E. coli cells for protein expression with an N-terminal Maltose Binding Protein. […]
The strain was subsequently grown with success on 100 mM glufosinate-supplemented M63 minimal media; while the gene coding for a new GluR (glufosinate resistance) protein was cloned from that strain and referred to herein as GluRAP and set forth in SEQ ID NO:1 and 2. […] The resulting E. coli clone was analyzed for the ability to grow in the presence of glufosinate. […]

For another experiment, the system named is E. coli. Description: growth of E. coli expressing MBP fusions under various glufosinate concentrations after IPTG induction (FIG. 3). Particulars: compared with the other genes. It counts as cell-based. The method, then:
Genes coding for glufosinate-resistant proteins were cloned as MBP (Maltose Binding Protein) fusions and expressed in E. coli. These E. coli strains were grown. The ability of the strains to tolerate and continue to grow in the presence of glufosinate was measured under various glufosinate concentrations upon induction of gene expression by addition of IPTG into the media in which the strains were growing.

The subject of another experiment is soy callus. Description: selection of transformed soy callus on medium containing glufosinate. In kind it is cell-based, soybean. Conditions: medium containing 25 uM glufosinate; construct pSV37; GUS stain confirmed. The method, then:
Transgenic plants were selected by incubating callus on medium containing 25 uM glufosinate.
Transgenic plants were selected by incubating callus on medium containing 25 uM glufosinate. […] (FIG. 4) See above for construct pSV37 that carries APG00318 gene.

With `CP(=O)(O)CCC(N)C(=O)O` (stereo not drawn) [glufosinate], the “glufosinate concentration tolerated by control E. coli” value in the experiment on TOP10 E. coli cells (control E. coli, minimum inhibitory concentration experiments) is at most 1 mM.

B1: SEQ ID NO: 7: glufosinate resistance protein from Flavobacterium sp. strain APG00135, encoded by SEQ ID NO: 8 (protein)
chain: MSVILRPATVNDLEKILEIVNHSILHTTANYSYDIQTIEVQTKWFEDKKAKNLPIVVADLDGEVVGFGSYGQFREKIGYQYTVEHSVYVVDNVIGKGIGSKLLTELIRLAKEQGYHVMIGAIDADNAGSITFHEKFGFVATGTIREVGYKFDHWLDLVFMQLILK
modifications: Flavobacterium sp. strain APG00135
As to B1, the “tolerance level to glufosinate of E. coli cultures carrying the gene” value (from here on “tolerance level to glufosinate”) in the experiment on E. coli is “higher tolerance level to glufosinate”.

B2: SEQ ID NO:1: glufosinate resistance protein from Pseudomonas sp. strain APG00318, encoded by SEQ ID NO: 2 (protein)
chain: MSKTTVRIAQVSDAQAIQAIYAPMVESTTISFELEPPSVEEMAMRIESTLLTYPYLVAVRDGQVIGYAYASQHRAREAYRWSVDVTVYISPEAHRSGVGRALYDVLLPTLKKQGFHAAYAGIALPNDGSVGLHEALGFAHIGTYPEVGFKHGAWRDVGYWRIALDSTNPPKLPVLFSEISLF
modifications: Pseudomonas sp. strain APG00318
Take B2: the “concentration of glufosinate at which the E. coli clone was able to grow in liquid media” value in the experiment on TOP10 E. coli cells (E. coli clone expressing the protein with N-terminal maltose binding protein (pMAL)) is 100 mM. Also, the “tolerance level to glufosinate” value in the experiment with E. coli is on record as “higher tolerance level to glufosinate”. Further, the “glufosinate resistance of transformed soy callus” value in the experiment on soy callus is on record as “Glufosinate resistance was observed”.

B3: SEQ ID NO: 9: glufosinate resistance protein from Serratia sp. strain APG00119, encoded by SEQ ID NO: 10 (protein)
chain: MTTLSAPVLSLLDATPDDMAAVLRIYTQHVLYGAASFEEQPPTLAEMQLRLSKVREAGLPWLVAKSAGVIVGYCYATPYRPRPAYRFTVEDSVYIAEGQQGKGIGRALLSALIARCEQGPWRQMLAIVGDSAANRGSLALHQSLGFTSAGTLKAVGFKLGEWRDTQIMQRALGAGGNRHP
modifications: Serratia sp. strain APG00119
Consider B3, for which the “tolerance level to glufosinate” value in the experiment with E. coli is reported as “higher tolerance level to glufosinate”.
